From publication PMC12207370 (2025)
Bridge positions count the residues as written; N and C are the ends. Square brackets hold non-standard residues; d marks the D form. Ends that are not written are not given here.

B1: CD59 (immobilized for SPR) (receptor)
chain: LQCYNCPNPTADCKTAVNCSSDFDACLITKAGLQVYNKCWKFEHCNFNDVTTRLRENELTYYCCKKDLCNFNEQLEN

Tests used:
Assay in all cases: SPR
[1] = biological target: rILYd4 (Streptococcus intermedius, UniProt Q9LCB8 1-532)
[2] = biological target: CP-04
[3] = biological target: CP-13 (N-terminal Ac-D-Tyr cyclized to a C-terminal Cys (thioether macrocycle))
[4] = biological target: CP-03
[5] = biological target: CP-02
[6] = biological target: B1
[7] = biological target: B1

Q: What does the source list for B1?
A: Kd [1]: 48.3 nM; Kd [2]: 11.9 nM; Kd [3]: 10.8 nM; Kd [4]: 23.4 nM; Kd [5]: 15.3 nM

Q: For {CH2CO}-[dY]SWTWGNRSSVRGC (thioether N-14) [CP-06], which Kd [6] is on record?
A: 11.3 nM

Q: And the koff [7]?
A: 0.0204 s⁻¹
